Test results reported in patent US20130326645.

Tests used:
Experiment in all cases: cell_activity
ZFN 29730 (synthetic) = conditions: pair 29732/29730, donor pDAS000152 10:1, A-genome (B 6306, D 7911), wheat SEC protoplasts
ZFN 25712 (synthetic) = conditions: pair 25712/25713, maize
ZFN 25686 (synthetic) = conditions: pair 25686/25687, maize
ZFN 25717 (synthetic) = conditions: pair 25716/25717, maize; text states 380 times control
ZFN 25687 (synthetic) = conditions: pair 25686/25687, maize
ZFN 25713 (synthetic) = conditions: pair 25712/25713, maize
ZFN 29732 (synthetic) = conditions: pair 29732/29730, donor pDAS000152 10:1, A-genome (B 6306, D 7911), wheat SEC protoplasts
ZFN 25688 (synthetic) = conditions: pair 25688/25689, maize
ZFN 25716 (synthetic) = conditions: pair 25716/25717, maize; text states 380 times control
ZFN 25689 (synthetic) = conditions: pair 25688/25689, maize

## AGGCAGCACGTGCTCCTGATGCGGGACT (double strand) [29730 site]
ZFN 29730 (synthetic)
  activity (ppm NHEJ editing): 6720

## ATCGGGCATCGGCGACTGATGAGCCTTG (double strand) [25712 site]
ZFN 25712 (synthetic)
  activity (% of IPPK2 ZFN activity): 69

## CACAACAAGACTGCGGGTTCGGTGGCGC (double strand) [25686 site]
ZFN 25686 (synthetic)
  activity (% of IPPK2 ZFN activity): 32

## CGGAAGCGGATGGCCCGCTTCTTTAGAA (double strand) [25717 site]
ZFN 25717 (synthetic)
  activity (% of IPPK2 ZFN activity as printed): 380

## GATAGGTGGCAGTGGCAGTGGCACTGGC (double strand) [25687 site]
ZFN 25687 (synthetic)
  activity (% of IPPK2 ZFN activity): 32

## GATCAACGGAAGCGGATGGCCCGCTTCT (double strand) [25713 site]
ZFN 25713 (synthetic)
  activity (% of IPPK2 ZFN activity): 69

## GATCCCAAGCGGTGGTGCTTTCAAGGAC (double strand) [29732 site]
ZFN 29732 (synthetic)
  activity (ppm NHEJ editing): 6720

## TATCGGCACAACAAGACTGCGGGTTCGG (double strand) [25688 site]
ZFN 25688 (synthetic)
  activity (% of IPPK2 ZFN activity): 108

## TGATCGCATCGGGCATCGGCGACTGATG (double strand) [25716 site]
ZFN 25716 (synthetic)
  activity (% of IPPK2 ZFN activity as printed): 380

## TGGCAGTGGCAGTGGCACTGGCACGGCA (double strand) [25689 site]
ZFN 25689 (synthetic)
  activity (% of IPPK2 ZFN activity): 108
